Test results published in patent US20240368234A1.

Target: MBP-SpyTag
Experiment: SDS-PAGE coupling assay, biotin-HPDP-modified Catcher, without TCEP, one hour

B1: SpyCatcher Ala87→Cys modified with biotin-HPDP (designed binder)
chain: VTTLSGLSGEQGPSGDMTTEEDSATHIKFSKRDEDGRELAGATMELRDSSGKTISTWISDGHVKDFYLYPGKYTFVETAAPDGYEVCTPIEFTVNEDGQVTVDGEATEGDAHT
Q: Which loss of activity does the source give for B1 here?
A: 50%
